# Laboratory results: the DeepSol protein solubility set
# Assay: soluble on expression in E. coli; label from the status in PepcDB or PDB records
row,Sequence,soluble on expression in E. coli
1,MSKLVVIGGGPAGYVAAITAAQNGKNVTLIDEADLGGTCLNVGCMPTKSLLESAEVHDIVRKSNHYGVTLNNGSISIDWKQMQVRKSQIVTQLVQGIQYLMKKNKIKVIQGKAKFETDHRVRVTYGDKEIVVDGEQFIIATGSEPTELPFAPFDGKWILNSTHAMSLKNIPKSLLIVGGGVIGCEFASIYSRLGTKVTIVEMAPQLLPGEDEDIAHILRGKLENDGVKIFTGATLKGLNSYKKQALFEYEGGIQEVNPEFVLVSVGRKPRVQQLNLEKAGIQYSNKGISVNEHMQTNVSHIYAAGDVIGGIQLAHVAFHEGTTAALYASGEDVKVNYHAVPRCIYTAPEIASVGLTEKDAKEQYGDIQIGEFPFTANGKALIIGEQTGKVKVIVEPKYQEIVGISIIGPRATELIGQGTVMIHTEVTADIMRDYIAAHPTLSESIHEALLQAVGHAVHA,not soluble
2,MKIYVDADACPVKDVIIFEATKAEIPVTLVTSFSHYSNAEQPKGVETIYVDSGADAADYRIMQLAQKEDLIVTQDYGLASLALAKGCIVLHHKGYKYTNENIDQLLQTRYLSAMVRKSGKRTKGPKPFTAEDKEKFRALFKSMIPLLEHHHHHH,soluble
3,MSLAADTPTTCCFSYTSRQIPQNFIADYFETSSQCSKPGVIFLTKRSRQVCADPSEEWVQKYVSDLELSA,soluble
4,AIAVGHKYPVKCLEVDKSKGRLVVSHRRAMAERQMEHLKTGALVEGTVQGVKPYGVFVDVFGTSGLLHISQISHDQVANIQSLFLPGEKVKCMVVSFDKQRGRISLSTKALEPHPGDMLRNKQLVYEKAEEMALSYNQRMDSPVRSKNTTSSSTDDIIAGLDIGSLDDLDPILFGTHTNSSNSNTHSDHLKQDSMNGTIPESDI,soluble
5,MSLGDSETIRILVSTDNHVGYNERDPIRGDDSWKSFHEVMCLAKQHDVDMVLLAGDLFHENKPSRKSMYQVMRSIRMNCLGDKPCELQLLSDASENFQGAFNHVNYEDLDINVGIPIFSIHGNHDDPSGEGHLAALDILQVSGLLNYYGRTPESDNIQLKPVLLQKGRTKLALYGMSNVRDERLFRTFRDGKVKFFRPSVQKEDWYNLICVHQNHHAYTETGYLPENFLPEFLDLVIWGHEHECLINPREGHHHHHH,soluble
6,MTKGSPGDTPDKASDRAARGASDASDASDAWRRWHEQRVATVSAPYGPLALTGTHWLEDHPDGQLPDIPGRWTTDGDAVLLTAGRADGLTVDGRLLDGEARLTADRGPVGAARVARGERRLVVLVREGLWGVRDFDPAAPARRAFRGIAATPYDPRWSVPGRFTPYDTGRRSVRVPNADGRERGLALGGELAFELDGRAHTLQVGVEDDGSLWAVFADATSGSTSYRFRFLRPAAPDAEGRTTVDLNRALLPPCAFADHFVCPFPPPGNTLGARVEAGERELRLEHHHHHH,soluble
7,MGSDKIHHHHHHMLDSPLSLLAGVGAEIAAGNLIPFLGPDVLTIEAEPPVPVGARTLSLALASKVGVPGRIKNNLWHSAQYIETHKHRVTLDKLMAAFFQPIPEPNALHRWLAGLPKLPMVVDTWYDGAMKAAFEAVGRESWGIVQGCSKARRLDGGVWFRAVSPDGAIVAEDVAESWRTVLYKPHGAAQPTGDVLVSDSDYVEVLTDIDIGTPIPQLVKDRRSNRGFVFLGCRFYDQILRTFARQISKRCGGPRYAVVPEELTRNELKFLEVEGITPITMPLAEAVALMTAAKTA,not soluble
8,MAHHHHHHMADSSCTSAAASVATAAPAFDFKPLQKSNVDLFATAPQVKKLTRREKDKMLRELEVKRAKPRAVDDSSGAAGKGRKGQPRQSDRSAAVAEVVRSATISSSSDDASGIGNKGEKKKSLFETVFDTKEVEKELAAQEDRRSRKRSKKQVLRHALHSNEEEDARTVFVGNLPNTIHKRDVEKIFKSCGSITAVRIRCQALEELDEQHQNMGRAVRVLRGEIKKDAKYSATAYVLFDSAKSIASALEKNGLIFHNRHIVVTTMDVESRAYPPETSIFLGNVAYNTTEEDVWSFFQEHGIADVKRVRLVRDRETGDCKGFGYVEFMHASSVQPAIETRGDKLNGRELRIVHVNKSKEVKVATKSRREKRRSEHAGGRGGAEACKRSRSGGDGDGGSRGSAGYSNFKKPRTDSDLPSWAGLTTNPRRKMPKDLRPLVEGKVEFKPRGPRAPVKRKTRNPEK,soluble
9,MIPGEYIIKNEFITLNDGRRTLNIKVSNTGDRPVQVGSHYHFFEVNRYLEFDRKSAFGMRLDIPSGTAVRFEPGEEKTVQLVEIGGSREIYGLNDLTCGPLDREDLSNVFKKAKELGFKGVE,not soluble
10,MAQTPAFNKPKVELHVHLDGAIKPETILYFGKKRGIALPADTVEELRNIIGMDKPLSLPGFLAKFDYYMPVIAGCREAIKRIAYEFVEMKAKEGVVYVEVRYSPHLLANSKVDPMPWNQTEGDVTPDDVVDLVNQGLQEGEQAFGIKVRSILCCMRHQPSWSLEVLELCKKYNQKTVVAMDLAGDETIEGSSLFPGHVEAYEGAVKNGIHRTVHAGEVGSPEVVREAVDILKTERVGHGYHTIEDEALYNRLLKENMHFEVCPWSSYLTGAWDPKTTHAVVRFKNDKANYSLNTDDPLIFKSTLDTDYQMTKKDMGFTEEEFKRLNINAAKSSFLPEEEKKELLERLYREYQ,soluble
11,MNELRDPGDAVIAIVGGGASGVLVALQLLRQAVAPVQIVVIEPHAVLGEGVAYSTARPEHLLNVPAARMSALVEAPQDFVDYLRAHACCPELEDARLPQAFVGRRHYAPYLRDRLQTARVQSPATLIVHSARVQTLHADADGALLQLDDGQTLHATSVVLAVGNALRPLPLRGATGLSATQRLEAWDTEAVAALPQDAAVCIVGSGLSMADTVVTLAAQAHRGAVHVVSRHGLLPLPQAHCVAADFDPQPLLALSLRARMRSLRQHAQVAMAQGLPWQGVMERVRPLNQVLWQTLSVADQRRFLRHVVRYWDVHRHRIAAPVHAQLQAMRARGQLQLHRARLDVAFQAGACVRLSAGASAGHALQLDVQTLVNATGVEMRVQAMRNPLLQQLLGQGIAVAGSHGIGVDTAADGCLIDAEGHANPRLRVIGSLRIGSLWESLAVPELREQAAAIARDVLALLGR,not soluble
12,MGSDKIHHHHHHMRRLNRKNNEALKKLNDRQRKVLYCIVREYIENKKPVSSQRVLEVSNIEFSSATIRNDMKKLEYLGYIYQPHTSAGRIPTDKGLRFYYEEMLKISKETSEADLAVETFKSMPLADPEKVLFLAGNLLARLTEGYVLIERPNTRDLKILRVMLIPVSEDYLIFSILTEFGVSKVTPIKTQERLNWEEIERQLNFLLRGRTVGEVLMGKIESLKGSGFLRLIESLIGETVERYLDAGLENLLKDETLTLEDIRNLLEEVKDQKFLESLVGEGITVRIGREIGRKKLEKFAVFSGKYFKGESPIGSVYLFTSKVTKYDRNHRVFEYILNRLSEYFTSTSRR,not soluble
13,PMEQVVRIHASSGTTGKPTVVGYTQNDIDNWANIVARSLRAAGGSAKDKIHVAYGYGLFTGGLGAHYGAERLGATVIPMSGGQTEKQAQLIRDFQPDMIMVTPSYCLNLIEELERQMGGDARGCSLRVGVFGAEPWTLAMRAEIERRLGITALDIYGLSEVMGPGVAMECLETVDGPTI,not soluble
14,PVNGALDQYSARAANILAGNLDNHPLLEITALDFRMKANSDVLIAVTGAPLTLTVGGRPCSQWEPVSVRAGESVSIRGIHRGLRAYLAIHGSIEAGTLLGSAAPDTVVGFGLQLQEGTTLLSRRSVSPVRQPYFDLPLFRLGLERPSMGSDLSVDVTDGPDVAEFGESGELLFTSEYVVSGRSNHIGLRLGGELPERTSSDEVLSRGVPVGAVEVPSREELLVLHRGRGVTAGYPVLAVVTSTGLDVLAQARPGDKVRFRKTT,not soluble
15,MKTVRIETFGCKVNQYESEYMAEQLEKAGYVVLPDGNAAYYIVNSCAVTKEVEKKVKRLIKSIRNRNKNAKIILTGCFAQLSPDEAKNLPVDMVLGIDEKKHIVDHINSLNGKQQVVVSEPGRPVYEKVKGSFEDRTRSYIKVEDGCDNTCTYCAIRLARGTRIRSKPLEIFKEEFAEMVMKGYKEIVITGVNLGKYGKDMGSSLAELLKVIEKVPGDYRVRLSSINVEDVNDEIVKAFKRNPRLCPHLHISVQSGSDDVLKRMGRKYKISDFMRVVDKLRSIDPDFSITTDIIVGFPGETDADFQRTLELVEKVEFSRVHIFRFSPRPGTPASRMEGGVPESKKKERLDVLKEKAKDVSIRYRKRIIGKERKVLAEWYVMKGVLSGYDEYYVKHEFVGNRVGEFHSVRVKSLSEEGVISCRADMVEGKVPARGLEHHHHHH,soluble
16,MSQSLFSLAFGVGTQNRQEAWLEVFYALPLLKPSSEIVAAVAPILGYAAGNQALTFTSQQAYQLADALKGIDAAQSALLSRLAESQKPLVATLLAEDAAPSSTAEAYLKLHLLSHRLVKPHAVNLSGIFPLLPNVAWTNIGAVDLAELAELQLEARLKGKLLEVFSVDKFPKMTDYVVPAGVRIADTARVRLGAYIGEGTTVMHEGFVNFNAGTEGPGMIEGRVSAGVFVGKGSDLGGGCSTMGTLSGGGNIVISVGEGCLIGANAGIGIPLGDRNIVEAGLYITAGTKVALLDEQNALVKVVKARDLAGQPDLLFRRNSQNGAVECK,not soluble
17,MTDFLEIRPLTKEAFTPFGDVIETTPSSMRHINGGQTERHHALSAPEAAGEGARIILNIFRGQPRVFPHKIDMMERHPLGSQSFSPLSGRPFLVVVAQDDGGRPARPQVFLARGDQGVNYRRNVWHYPLMPLQAVSDFLVADREGPGNNLEEYFFDEPFMIAEPSL,not soluble
18,MISKYLVRDVMKKGVVEVTLDTKLSDVIKTMAKYDISSVVVSDGETFWGIITDTDVLKHYNDLDKTAEEIMTTNPITVSPEAPLEKAVEIMAEKGIHHLYVKSPCEDKIVGVLSSKDIIKLFSDLIE,soluble
19,MSLNHPSSTPVPPLDATPARALGEFIRAHRERLSPQAVGLPPGPRRRTPGLRREEVAQLCGVSPTWYTWIEQGRPVSASADALARIAVALQLSKAERAYLFELAAQRDPAEPDVAGGDLPPTLAATVAAIATPAYVMDRQWNALAWNTPAAALFSGWLDGEHDRNLLRFTFMSPAARTLIVDWETRARRMAAEFRADSIRHLTDAPTRALIDALTAGSDAFAQYWASQDVFEREGGLREFDHPADGRMVYQQITLKPAHREDLKLVVLVRDEGHHHHHH,soluble
20,MTATETVRVRFCPSPTGTPHVGLVRTALFNWAYARHTGGTFVFRIEDTDAQRDSEESYLALLDALRWLGLDWDEGPEVGGPYGPYRQSQRAEIYRDVLARLLAAGEAYHAFSTPEEVEARHVAAGRNPKLGYDNFDRHLTDAQRAAYLAEGRQPVVRLRMPDDDLAWNDLVRGPVTFAAGSVPDFALTRASGDPLYTLVNPCDDALMKITHVLRGEDLLPSTPRQLALHQALIRIGVAERIPKFAHLPTVLGEGTKKLSKRDPQSNLFAHRDRGFIPEGLLNYLALLGWSIADDHDLFGLDEMVAAFDVADVNSSPARFDQKKADALNAEHIRMLDVGDFTVRLRDHLDTHGHHIALDEAAFAAAAELVQTRIVVLGDAWELLKFFNDDQYVIDPKAAAKELGPDGAAVLDAALAALTSVTDWTAPLIEAALKDALIEGLALKPRKAFSPIRVAATGTTVSPPLFESLELLGRDRSMQRLRAARQLVGHALEHHHHHH,soluble
21,MFEKGYVDENYIRVPKDRLFSFIVRVLTKLGVPEEDAKIVADNLVMADLRGVESHGVQRLKRYVDGIISGGVNLHPKIRVIREGPSYALIDGDEGLGQVVGYRSMKLAIKKAKDTGIGIVIARNSNHYGIAGYYALMAAEEGMIGISMTNSRPLVAPTGGIERILGTNPIALAAPTKDKPFLLDMATSVVPIGKLEVYRRKGKDIPEGWAINREGNITTKVEEVFNGGALLPLGGFGELLGGHKGYGLSLMVDILSGILSGGTWSKYVKNTSEKGSNVCHFFMVIDIEHFIPLEEFKEKISQMIEEIKSSRKHPEFERIWIHGEKGFLTMETRLKLGIPIYRKVLEELNEIAKRVGVEGL,soluble
